{
  "source": "patent US12624123B2",
  "about": "“Compositions and methods for reducing off-target toxicity of antibody drug conjugates” (The Research Foundation for The State University of New York, priority 2019, dated 2026)",
  "molecules": {"B1": {"name": "DMFH1 (protein)", "VHH": "QVQLQESGGGLVQPGGSLRLSCAASGSIFGISYMGWYRQAPGKQREPVAMITSGGSTYYADSVKGRVTISRDNAKKTVYLQMNSLRPEDASTYYCAAGCYRSDSPNRYDYWGQGTQVTVSS", "modifications": "DMFH1"}},
  "key": {"Kasumi-3 cells": {"system": "Kasumi-3 cells", "test": "MTT assay with DMFH1 in AML cell line Kasumi-3", "details": "Kasumi-3, 48-hour exposure, 10 μM DMFH1", "quoted_text": "(§1) MTT Cell based assay with DMFH1 in AML cell lines. Cell cytotoxicity of DM4 on MOLM-14, KG-1, Kasumi-3, MV-4-11 cells with and without 10 μM of DMFH1 sdAb over a 48-hour exposure periods."}, "MOLM-14 cells": {"system": "MOLM-14 cells", "test": "MTT assay with DMFH1 in AML cell line MOLM-14", "details": "MOLM-14, 48-hour exposure, 10 μM DMFH1", "quoted_text": "as §1"}, "MV-4-11 cells": {"system": "MV-4-11 cells", "test": "MTT assay with DMFH1 in AML cell line MV-4-11", "details": "MV-4-11, 48-hour exposure, 10 μM DMFH1", "quoted_text": "as §1"}, "[1]": {"test": "Competitive ELISA with free DM4", "type": "binding", "description": "To determine the binding affinity of the anti-DM4 sdAbs to DM4-conjugates and free DM4, indirect ELISA and competitive ELISA were employed. Briefly, ELISA plate were coated overnight with 100 μL of neutravidin at different concentration ranging from 1 μg/mL to 10 μg/mL. After blocking with 200 μL of 2% skimmed milk-PBST for 1 h, 100 μL of 1 μM biotin-DM4 solution was added into each well and incubated for 30 min, then 100 μL of purified anti-DM4 sdAb solution at concentration ranging from 0.1 nM to 1 μM was added and incubated for 1 h. Bound sdAbs were detected with HRP conjugated anti-His antibody and TMB substrate. After the linear range of binding was determined via the indirect ELISA, a concentration of anti-DM4 sdAb near the IC50 of binding was selected to proceed with competitive ELISA. For the competitive ELISA, anti-DM4 sdAb concentration was held constant as determined from the indirect ELISA and incubated with increasing concentration of DM4 ranging from 0.1 nM to 1 μM."}, "SK-BR-3 cells [2]": {"system": "SK-BR-3 cells", "test": "MTT cytotoxicity assay in SK-BR-3 cells", "type": "cell-based", "details": "10 μM DMFH1"}, "SK-BR-3 cells [3]": {"system": "SK-BR-3 cells", "test": "MTT cytotoxicity assay in SK-BR-3 cells", "type": "cell-based", "details": "24 h exposure, 10 μM sdAb", "description": "Positive clone sdAbs' DNA in pComb3XSS plasmid was isolated and transferred into pET-22b expression vector in SHuffle cells for expression. SK-BR-3 cells were used to test the anti-DM4 sdAbs effect on DM4 cytotoxicity. Briefly, 2,500 cells/well were seeded into a 96-well plate and allowed to adhere for 24 h before cell culture media was aspirated and replaced with 100 μL of fresh media solution containing with or without 10 μM of anti-DM4 sdAb and a range of DM4 concentration for another 24 h exposure period. The cells were then washed 2 times before replacing with fresh media and allowed to grow for additional 72 h."}, "KG-1 cells": {"system": "KG-1 cells", "test": "MTT assay with DMFH1 in AML cell line KG-1", "details": "KG-1, 48-hour exposure, 10 μM DMFH1", "quoted_text": "as §1"}},
  "note": "Several values for one entry are separate records, joined by “and”; a condition that tells them apart may be missing. Equal entries are not always repeated. Entries after “also recorded” stand apart in the source; their conditions may differ.",
  "data": [
    {"molecule": "B1", "values": [
      {"measurement": "fold shift of DM4 IC50", "setting": "Kasumi-3 cells", "value": 38.3, "unit": "fold"},
      {"measurement": "fold shift of DM4 IC50", "setting": "MOLM-14 cells", "value": 60.7, "unit": "fold"},
      {"measurement": "fold shift of DM4 IC50", "setting": "MV-4-11 cells", "value": 50.9, "unit": "fold"},
      {"measurement": "Kd", "setting": "[1]; free DM4, read-out: Estimated KD", "value": "0.011 µM and 0.0105 µM"},
      {"measurement": "IC50", "setting": "[1]; read-out: Estimated binding affinity IC50 to free DM4", "value": 0.011, "unit": "µM"},
      {"measurement": "effect on Trastuzumab Emtansine (T-DM1) cytotoxicity", "setting": "SK-BR-3 cells [2]", "value": "did not alter the cytotoxicity; also recorded: did not change T-DM1 cytotoxicity significantly"},
      {"measurement": "fold shift of DM1 IC50", "setting": "SK-BR-3 cells [2]; 24 h", "value": 85.6, "unit": "fold"},
      {"measurement": "Fold shifted (DM4 IC50)", "setting": "SK-BR-3 cells [3]", "value": "254 fold and 250.5 fold"},
      {"measurement": "fold shift of DM4 IC50", "setting": "KG-1 cells", "value": 57.2, "unit": "fold"}
    ]}
  ]
}
